Reference: paper PMC8265671

Molecular target: FLAG-tagged TgMLC1 C(8,11)S (Toxoplasma gondii)
Assay: co-IP; anti-FLAG M2 affinity resin, Triton X-100 extract of parasites in FLAG lysis buffer (10 mM imidazole pH 7.4, 300 mM NaCl, 1 mM EGTA, 5 mM MgCl2, 1% TX-100, 2 mM DTT, 2 mM ATP), overnight at 4°C, eluted with FLAG peptide, quantitative Western blotting

Substance: TgELC1 (Toxoplasma gondii essential light chain 1) (natural protein)
- fold increase in the amount recovered, against WT TgMLC1: 2 to 3 fold

Substance: TgMyoA (Toxoplasma gondii class XIVa myosin heavy chain) (from UniProt O00934 1-831)
- fold increase in the amount recovered, against WT TgMLC1: 2 to 3 fold
